# Source: US20260274955A1 (JANUX THERAPEUTICS, published 2026)
# No end group written: not given here.
# How the values were obtained:
# [1] = biological target: anti-CD28 Fab (SEQ ID NOs: 202, 203); assay: phage binding ELISA; captured anti-CD28 Fab pre-incubated with CD28 antigen as competitor, anti-M13-HRP detection
# Target sequence in this assay (VH, as listed by the source, chain 1 of 2): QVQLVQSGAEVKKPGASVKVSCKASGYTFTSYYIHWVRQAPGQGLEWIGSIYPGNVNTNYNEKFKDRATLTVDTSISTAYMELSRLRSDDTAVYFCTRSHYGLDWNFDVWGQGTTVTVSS
# Target sequence in this assay (VL, as listed by the source, chain 2 of 2): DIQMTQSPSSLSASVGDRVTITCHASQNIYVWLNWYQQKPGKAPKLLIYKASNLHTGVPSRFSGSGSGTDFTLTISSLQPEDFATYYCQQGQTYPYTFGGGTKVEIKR
# Method: (§1) After panning, phage infected bacteria were plated out and colonies picked into 96 well blocks. Clonal phage was then amplified and separated from bacterial cells via centrifugation.
# (§2) Clonal phage were harvested as crude supernatants and screened via standard ELISAs. […] Prior to the addition of clonal phage, wells were incubated with blocking buffer and CD28 antigen or blocking buffer alone. Without washing or aspirating, clonal phage supernatants were then added to the wells and incubated for a short time. Wells were then washed followed by detection of bound phage using a horse radish conjugated anti-M13 antibody. Clonal phage of interest were then sent for sequence analysis.
# [2] = biological target: anti-CD28 Fab (SEQ ID NOs: 202, 203); assay: phage binding ELISA; biotinylated anti-CD28 Fab captured on neutravidin plate, clonal phage supernatant, anti-M13-HRP detection;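 further: before crude clonal phage supernatants were added, wells were preincubated with CD28 antigen in blocking buffer or with blocking buffer only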
# Target sequence in this assay (VH, as listed by the source, chain 1 of 2): as the sequence (VH, as listed by the source, chain 1 of 2) above
# Target sequence in this assay (VL, as listed by the source, chain 2 of 2): as the sequence (VL, as listed by the source, chain 2 of 2) above
# Method: as §1, §2
# [3] = biological target: T1, anti-CD28 Fab (SEQ ID NOs: 202, 203); assay: phage binding ELISA on captured biotinylated Fab;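 further: clonal phage supernatants added to wells preincubated with CD28 antigen or blocking buffer only, bound phage detected by ELISA with horseradish-conjugated anti-M13 antibody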
# T1 construct: biotinylated and captured on neutravidin coated plates in the phage ELISA
# T1 sequence (VH, as listed by the source, chain 1 of 2): as the sequence (VH, as listed by the source, chain 1 of 2) above
# T1 sequence (VL, as listed by the source, chain 2 of 2): as the sequence (VL, as listed by the source, chain 2 of 2) above
# [4] = biological target: T1, anti-CD28 Fab (SEQ ID NOs: 202, 203); assay: phage binding ELISA on captured Fab, competitor CD28 antigen
# Method: as §1, §2
# [5] = biological target: T2, anti-CD28 Fab (SEQ ID NOs: 202, 203); assay: binding ELISA, peptide captured, anti-CD28 Fab titrated
# T2 construct: biotinylated when captured in the phage ELISAs
# T2 sequence (VH, as listed by the source, chain 1 of 2): as the sequence (VH, as listed by the source, chain 1 of 2) above
# T2 sequence (VL, as listed by the source, chain 2 of 2): as the sequence (VL, as listed by the source, chain 2 of 2) above
binder,measurement,setting,value
TCSAGATYKWPMCF [Phage-1243],Anti-CD28 Fab signal in the presence of CD28,[1],0.07
same,"Anti-CD28 Fab (SEQ ID NOs: 202, 203) signal",[2],0.77
MCAAGFHYPWPACL [Phage-927],"Anti-CD28 Fab (SEQ ID NOs: 202, 203) signal",[3],2.23
same,Anti-CD28 Fab signal in the presence of CD28,[4],0.1
"TCAAGAHYPWPACL (cysteine pairing not given here; also: biotinylated, site not given here) [Peptide-106]",EC50,[5],4.2 nM
ICAAGAGWPWPWCL [Phage-1245],Anti-CD28 Fab signal in the presence of CD28,[1],0.1
same,"Anti-CD28 Fab (SEQ ID NOs: 202, 203) signal",[2],0.75
GCAAGAEYNWPTCL [Phage-1251],Anti-CD28 Fab signal in the presence of CD28,[1],0.64
same,"Anti-CD28 Fab (SEQ ID NOs: 202, 203) signal",[2],0.69
TCAAGAVWQWPTCF [Phage-1248],Anti-CD28 Fab signal in the presence of CD28,[1],0.06
same,"Anti-CD28 Fab (SEQ ID NOs: 202, 203) signal",[2],0.71
TCAAGATYAWPYCV [Phage-929],"Anti-CD28 Fab (SEQ ID NOs: 202, 203) signal",[3],2.21
same,Anti-CD28 Fab signal in the presence of CD28,[4],0.09
TCAAGAAYTWPHCF [Phage-1252],Anti-CD28 Fab signal in the presence of CD28,[1],0.11
same,"Anti-CD28 Fab (SEQ ID NOs: 202, 203) signal",[2],0.69
SCSAGASYAWPMCI [Phage-1255],Anti-CD28 Fab signal in the presence of CD28,[1],0.06
same,"Anti-CD28 Fab (SEQ ID NOs: 202, 203) signal",[2],0.59
TCAAGAAYPWPLCF [Phage-930],"Anti-CD28 Fab (SEQ ID NOs: 202, 203) signal",[3],2.18
same,Anti-CD28 Fab signal in the presence of CD28,[4],0.11
GCAAGFHYTLSTCL [Phage-1259],Anti-CD28 Fab signal in the presence of CD28,[1],0.05
same,"Anti-CD28 Fab (SEQ ID NOs: 202, 203) signal",[2],0.42
TCSAGASNKLSLCL [Phage-931],"Anti-CD28 Fab (SEQ ID NOs: 202, 203) signal",[3],2.18
same,Anti-CD28 Fab signal in the presence of CD28,[4],0.06
TCAAGATYDWPSCL [Phage-1247],Anti-CD28 Fab signal in the presence of CD28,[1],0.08
same,"Anti-CD28 Fab (SEQ ID NOs: 202, 203) signal",[2],0.71
"LCAAGASWPWPVCL (cysteine pairing not given here; also: biotinylated, site not given here) [Peptide-90]",EC50,[5],13.1 nM
WCSAVFSYQWPVCL [Phage-1254],Anti-CD28 Fab signal in the presence of CD28,[1],0.06
same,"Anti-CD28 Fab (SEQ ID NOs: 202, 203) signal",[2],0.61
"TCAAGAAWGWPLCF (cysteine pairing not given here; also: biotinylated, site not given here) [Peptide-95]",EC50,[5],5.6 nM
TCSAGATYTWSKCF [Phage-939],"Anti-CD28 Fab (SEQ ID NOs: 202, 203) signal",[3],2.15
same,Anti-CD28 Fab signal in the presence of CD28,[4],0.06
TCSAGATYTWPWCF [Phage-941],"Anti-CD28 Fab (SEQ ID NOs: 202, 203) signal",[3],2.14
same,Anti-CD28 Fab signal in the presence of CD28,[4],0.07
TCAAGANWEWPWCF [Phage-928],"Anti-CD28 Fab (SEQ ID NOs: 202, 203) signal",[3],2.22
same,Anti-CD28 Fab signal in the presence of CD28,[4],0.08
"TCSAGAAYSWPACF (cysteine pairing not given here; also: biotinylated, site not given here) [Peptide-98]",EC50,[5],24.3 nM
"TCSAGATWPWPICL (cysteine pairing not given here; also: biotinylated, site not given here) [Peptide-89]",EC50,[5],2.1 nM
RCSAGFHYPLSLCL [Phage-933],"Anti-CD28 Fab (SEQ ID NOs: 202, 203) signal",[3],2.18
same,Anti-CD28 Fab signal in the presence of CD28,[4],0.06
"SCSAGAAYYWPWCL (cysteine pairing not given here; also: biotinylated, site not given here) [Peptide-103]",EC50,[5],112 nM
"TCSAGATWAWPLCF (cysteine pairing not given here; also: biotinylated, site not given here) [Peptide-104]",EC50,[5],15.6 nM
TCSAGATYGWPACF [Phage-1244],Anti-CD28 Fab signal in the presence of CD28,[1],0.07
same,"Anti-CD28 Fab (SEQ ID NOs: 202, 203) signal",[2],0.76
"TCAAGATYLWPTCL (cysteine pairing not given here; also: biotinylated, site not given here) [Peptide-105]",EC50,[5],20.5 nM
SCGGGFHYSWPLCF [Phage-1258],Anti-CD28 Fab signal in the presence of CD28,[1],0.15
same,"Anti-CD28 Fab (SEQ ID NOs: 202, 203) signal",[2],0.55
"LCAAGATYPWPLCL (cysteine pairing not given here; also: biotinylated, site not given here) [Peptide-96]",EC50,[5],5.6 nM
"LCAAGATYPWPTCL (cysteine pairing not given here; also: biotinylated, site not given here) [Peptide-99]",EC50,[5],25.8 nM
"TCSAGATYTWPKCF (cysteine pairing not given here; also: biotinylated, site not given here) [Peptide-93]",EC50,[5],15.7 nM
MCSAGANWPWPLCF [Phage-932],"Anti-CD28 Fab (SEQ ID NOs: 202, 203) signal",[3],2.18
same,Anti-CD28 Fab signal in the presence of CD28,[4],0.07
TCSAGAQWEWPACL [Phage-1253],Anti-CD28 Fab signal in the presence of CD28,[1],0.08
same,"Anti-CD28 Fab (SEQ ID NOs: 202, 203) signal",[2],0.67
ECSAGAMWGWPACF [Phage-1246],Anti-CD28 Fab signal in the presence of CD28,[1],0.09
same,"Anti-CD28 Fab (SEQ ID NOs: 202, 203) signal",[2],0.73
"TCAAGAAWPWPQCL (cysteine pairing not given here; also: biotinylated, site not given here) [Peptide-92]",EC50,[5],2.6 nM
DCWWDSPYHWRVCL [Phage-1256],Anti-CD28 Fab signal in the presence of CD28,[1],0.07
same,"Anti-CD28 Fab (SEQ ID NOs: 202, 203) signal",[2],0.57
SCAAGAGYGWPQCL [Phage-1257],Anti-CD28 Fab signal in the presence of CD28,[1],0.13
same,"Anti-CD28 Fab (SEQ ID NOs: 202, 203) signal",[2],0.55
"TCSAGASYPWPLCL (cysteine pairing not given here; also: biotinylated, site not given here) [Peptide-91]",EC50,[5],5.3 nM
"TCSAGAAYPWPLCL (cysteine pairing not given here; also: biotinylated, site not given here) [Peptide-97]",EC50,[5],4.4 nM
"TCAAGATWSWPACF (cysteine pairing not given here; also: biotinylated, site not given here) [Peptide-94]",EC50,[5],4.5 nM
"TCSAGAHYPWPICL (cysteine pairing not given here; also: biotinylated, site not given here) [Peptide-102]",EC50,[5],10.6 nM
PCSAGATYAWPYCL [Phage-1249],Anti-CD28 Fab signal in the presence of CD28,[1],0.09
same,"Anti-CD28 Fab (SEQ ID NOs: 202, 203) signal",[2],0.71
"TCSAGATYEWPRCL (cysteine pairing not given here; also: biotinylated, site not given here) [Peptide-101]",EC50,[5],12.8 nM
NCSAGATYPWPLCL [Phage-934],"Anti-CD28 Fab (SEQ ID NOs: 202, 203) signal",[3],2.17
same,Anti-CD28 Fab signal in the presence of CD28,[4],0.07
TCAAGAQLEWPWCF [Phage-1250],Anti-CD28 Fab signal in the presence of CD28,[1],0.07
same,"Anti-CD28 Fab (SEQ ID NOs: 202, 203) signal",[2],0.7
"SCSAGAHYPWPQCF (cysteine pairing not given here; also: biotinylated, site not given here) [Peptide-100]",EC50,[5],19 nM
